Patent US20120058499

Biological target: NEDD8-amino-luciferin, Q15843
Sequence (Q15843 whole entry, looked up): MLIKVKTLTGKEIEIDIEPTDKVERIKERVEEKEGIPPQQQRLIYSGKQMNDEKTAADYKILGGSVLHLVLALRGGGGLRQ

B1: DEN1 (NEDD8-specific protease 1) (protein)
chain: MDPVVLSYMDSLLRQSDVSLLDPPSWLNDHIIGFAFEYFANSQFHDCSDHVSFISPEVTQFIKCTSNPAEIAMFLEPLDLPNKRVVFLAINDNSNQAAGGTHWSLLVYLQDKNSFFHYDSHSRSNSVHAKQVAEKLEAFLGRKGDKLAFVEEKAPAQQNSYDCGMYVICNTEALCQNFFRQQTESLLQLLTPAYITKKRGEWKDLITTLAKK
- luminescence (RLUs), 250 nM substrate: A significant increase in signal was observed with the NEDD8-amino-luciferin substrate at a Den1 concentration at least 3-orders of magnitude lower than required for the Z-RLRGG (SEQ ID NO: 1)-amino-luciferin substrate
